According to patent US20250241939A1, “NUCLEIC ACID-BASED DELIVERY SYSTEMS AND USES THEREOF” (Kodikaz Therapeutic Solutions, Inc., priority 2022, published 2025):

Legend:
[1] = tested on: MM cell lines (MM1s, OPM1, RPMI); experiment: Cell viability: sensitivity to bortezomib after culture with plasma and ctDNA; assay type: cell-based, human
Description: BR: Bortezomib resistant, BS: Bortezomib sensitive. Error bars indicate the standard deviation of triplicate experiments.
Cell viability: Cell viability assays were performed in 96 well, black, clear-bottom microplates. For MM cell line studies, 3×10^4 cells were cultured for 24 hours with media containing 10% human plasma of a bortezomib-resistant or-sensitive patient or a control non-cancer patient. Cells were then cultured for 24 hours with titrating concentrations of bortezomib (doses: 0, 5, 10, 15, 50 nM; Sigma). For PC cell lines viability studies, 1×10^4 cells were incubated for 24 hours with media containing plasma of a gemcitabine-resistant patient or non-cancer patient. Subsequently, titrating concentrations of gemcitabine (doses: 0, 10, 25, 50, 100, 200 μM; Sigma-Aldrich, MO) were added to the culture media and cells were then incubated for 96 hours. CellTiter-Blue Cell Viability Assay was used to evaluate cell viability according to the manufacturer's instructions (Promega). Cell viability was measured by a fluorescent protocol in an microplate reader. Experiments were performed in triplicate of 3 independent studies.

[2] = tested on: HFF (fibroblast), DU145 (prostate cancer), and MCF10A (breast); experiment: Uptake of MM2 fragments in different cell types; assay type: cell-based
From the text: (§1) FIG. 20 provides fluorescence microcopy images evaluating uptake of fluorescently labelled synthetic DNA derived from a multiple myeloma ctDNA (MM2 (1-290), MM2 (89-290), MM2 (177-290), and MM2 (1-201), and MM2 (1-113)) by multiple myeloma/B cell lines (MM1S and RPMI) and cell lines of other cell types (HFF—fibroblast, DU145—prostate cancer, MCF10A breast).
(§2) A follow-up experiment evaluated uptake of the fragments in different cell types, with counterstaining to identify nuclei (DAPI) and cytoplasm (Texas red-phalloidin).

[3] = tested on: MM/B cell lines (MM1S and RPMI); experiment: Uptake of MM2 fragments in different cell types; assay type: cell-based; settings: DAPI and Texas red-phalloidin counterstain
From the text: as §1, §2

[4] = tested on: multiple myeloma cell line; experiment: Uptake of fluorescent MM2 fragments, fluorescent microscopy; assay type: cell-based; settings: Fluorescein 12 dCTP labelled PCR products
Description: FIG. 19 provides fluorescence microcopy images showing uptake of fluorescently labelled synthetic DNA derived from a multiple myeloma ctDNA (MM2 (1-290), MM2 (89-290), MM2 (177-290), and MM2 (1-201), and MM2 (1-113)), or a control sequence.
Fluorescein 12 dCTP from Perkin Elmer was used to label the PCR products, which were purified after the reaction.
In an initial study, fragments were generated as follows:
The fluorescent DNA sequences were incubated with multiple a myeloma cell line and uptake was evaluated by fluorescent microscopy.
The study was repeated with 5′FAM-labelled primers, with similar results.

| Molecule | sensitivity to bortezomib ([1]; MM1s and OPM1, ctDNA of BR patient added to non-cancer patient plasma) | sensitivity to bortezomib ([1]; RPMI cells, ctDNA of BS patient added to control plasma) | resistance to bortezomib ([1]; ctDNA of a BR patient added to plasma of a BR patient) | uptake [2] | uptake [3] | uptake [4] |
| --- | --- | --- | --- | --- | --- | --- |
| CC(C)C[C@H](NC(=O)[C@H](Cc1ccccc1)NC(=O)c1cnccn1)B(O)O [bortezomib] | decreased the sensitivity | increased sensitivity | further increased |  |  |  |
| MM2 (1-201): fluorescently labelled fragment of MM2 (1-290) (nucleic acid, listed as Homo sapiens, fluorescent label) DNA: ACCCGGCCTTGGACACGCCATTTTCAACTCCGTGGTGCGTTTTTTTTTTTTTTTTTTTTTTTTTGTAATGGAGTTTCGCTCTTGTTGCCCAGGATGGAGTGCAAGGGATCTTGGCTCACCACAGCCTCCGCCTCTTGGGTTCAAGTGATTCTTCTGCCTCAGCCTCCCAAGTAGCTGGGATTATAAGCACCCACCACCACG |  |  |  | not | observed | observed |
| MM2 (177-290): fluorescently labelled fragment of MM2 (1-290) (nucleic acid, listed as Homo sapiens, DNA, all phosphodiester, methylation of C not given here; fluorescein label via fluorescein-12-dCTP or 5' FAM primer) DNA: GGGATTATAAGCACCCACCACCACGCCCAGCTAATTTTGTATTTTTTAGAAGAGATGGAGTTTCTCCAGTTGGCCAGGATGGTCTGTATATCCTGACCTCATGATCTGCCCACC |  |  |  | not | observed | observed |
| MM2 (1-113): fluorescently labelled fragment of MM2 (1-290) (nucleic acid, listed as Homo sapiens, DNA, all phosphodiester, methylation of C not given here; fluorescein label via fluorescein-12-dCTP or 5' FAM primer) DNA: ACCCGGCCTTGGACACGCCATTTTCAACTCCGTGGTGCGTTTTTTTTTTTTTTTTTTTTTTTTTGTAATGGAGTTTCGCTCTTGTTGCCCAGGATGGAGTGCAAGGGATCTTG |  |  |  |  | not | not |
